# Source: US20240307512A1
# Legend:
# [1] = target: SARS-COV-2 Spike Omicron BA.1 (on pVSV-Luc-SARS-COV-2-S pseudovirus) (SARS-COV-2) (UniProt P0DTC2)
# [2] = target: SARS-COV-2 Spike Omicron BA.2 (on pVSV-Luc-SARS-COV-2-S pseudovirus) (SARS-COV-2) (UniProt P0DTC2)
substance,measurement,setting,value
ACE2 v2.4 (615)-Fc (IgG) (from UniProt Q9BYF1) (Fc fusion),IC50 (read off the curve),[1],0.02 nM
same,IC50 (read off the curve),[2],0.04 nM
